Test results as given in patent publication US20240018502A1.

Target: plasma purified human complement protein C3 (human) (UniProt P01024)
Experiment: cell-based or functional assay

Sequence of plasma purified human complement protein C3 (human) (P01024 23-667, chain 1 of 2): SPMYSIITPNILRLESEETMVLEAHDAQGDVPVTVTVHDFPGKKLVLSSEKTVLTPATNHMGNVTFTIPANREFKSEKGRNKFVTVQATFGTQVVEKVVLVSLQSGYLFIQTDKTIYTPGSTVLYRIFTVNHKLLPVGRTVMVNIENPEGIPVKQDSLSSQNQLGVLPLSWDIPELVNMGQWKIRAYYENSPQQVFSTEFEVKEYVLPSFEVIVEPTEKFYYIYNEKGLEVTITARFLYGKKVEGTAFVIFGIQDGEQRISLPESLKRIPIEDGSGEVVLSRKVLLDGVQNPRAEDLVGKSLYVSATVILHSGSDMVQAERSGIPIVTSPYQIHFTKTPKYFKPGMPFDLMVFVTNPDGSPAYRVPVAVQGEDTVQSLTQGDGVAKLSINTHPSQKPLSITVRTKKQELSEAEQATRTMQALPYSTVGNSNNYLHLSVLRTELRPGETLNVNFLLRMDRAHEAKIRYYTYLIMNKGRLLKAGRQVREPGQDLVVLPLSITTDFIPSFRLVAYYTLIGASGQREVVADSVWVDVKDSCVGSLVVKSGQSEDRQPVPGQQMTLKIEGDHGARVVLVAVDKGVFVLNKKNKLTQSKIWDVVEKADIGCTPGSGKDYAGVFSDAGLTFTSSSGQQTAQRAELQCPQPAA
Sequence of plasma purified human complement protein C3 (human) (P01024 672-1663, chain 2 of 2): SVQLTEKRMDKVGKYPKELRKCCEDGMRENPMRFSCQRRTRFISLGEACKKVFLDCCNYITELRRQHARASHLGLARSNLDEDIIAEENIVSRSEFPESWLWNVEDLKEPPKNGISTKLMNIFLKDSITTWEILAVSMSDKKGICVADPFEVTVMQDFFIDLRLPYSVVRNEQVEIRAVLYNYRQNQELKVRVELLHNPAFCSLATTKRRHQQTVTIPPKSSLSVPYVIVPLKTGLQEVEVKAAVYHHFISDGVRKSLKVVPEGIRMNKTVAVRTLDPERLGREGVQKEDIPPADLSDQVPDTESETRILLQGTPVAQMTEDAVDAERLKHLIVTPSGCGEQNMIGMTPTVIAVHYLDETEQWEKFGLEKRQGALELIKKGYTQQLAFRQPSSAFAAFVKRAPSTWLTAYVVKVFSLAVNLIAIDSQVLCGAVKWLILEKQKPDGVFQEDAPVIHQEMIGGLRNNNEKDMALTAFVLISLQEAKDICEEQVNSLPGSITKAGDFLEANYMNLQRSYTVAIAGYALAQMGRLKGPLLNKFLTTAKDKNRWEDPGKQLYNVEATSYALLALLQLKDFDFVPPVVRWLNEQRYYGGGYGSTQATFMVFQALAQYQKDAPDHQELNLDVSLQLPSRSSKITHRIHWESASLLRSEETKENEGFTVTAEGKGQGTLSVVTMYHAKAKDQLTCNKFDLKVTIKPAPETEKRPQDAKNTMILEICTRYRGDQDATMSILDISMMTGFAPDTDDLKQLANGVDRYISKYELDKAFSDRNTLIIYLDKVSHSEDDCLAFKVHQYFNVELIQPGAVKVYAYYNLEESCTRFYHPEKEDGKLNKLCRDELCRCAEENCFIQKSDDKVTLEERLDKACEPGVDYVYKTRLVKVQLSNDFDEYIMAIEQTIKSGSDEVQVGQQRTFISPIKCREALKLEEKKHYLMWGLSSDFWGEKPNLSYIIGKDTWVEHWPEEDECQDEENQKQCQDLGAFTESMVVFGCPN

Binder	EC50 of hC3 cleavage [nM]	EC50 hC3 cleavage [nM]
MTSP-1 Q38H/I41S/D60bT/F60eS/D96K/F97G/ins97aV/T98P/F99L/C122S/G151H/Q175L/Q192D (enzyme) VVGGTDADEGEWPWQVSLHALGHGHSCGASLISPNWLVSAAHCYIDTRGSRYSDPTQWTAFLGLHDQSQRSAPGVQERRLKRIISHPFFNKGVPLDYDIALLELEKPAEYSSMVRPISLPDASHVFPAGKAIWVTGWGHTQYGGTHALILQKGEIRVINQTTCENLLPQLITPRMMCVGFLSGGVDSCDGDSGGPLSSVEADGRIFQAGVVSWGDGCAQRNKPGVYTRLPLFRDWIKENTGV	22.2	–
MTSP-1 protease domain I41A/Y60gW/ins97aE/F99L/C122S/Q175M/Q192T (enzyme) VVGGTDADEGEWPWQVSLHALGQGHACGASLISPNWLVSAAHCYIDDRGFRWSDPTQWTAFLGLHDQSQRSAPGVQERRLKRIISHPFFNDFETLDYDIALLELEKPAEYSSMVRPISLPDASHVFPAGKAIWVTGWGHTQYGGTGALILQKGEIRVINQTTCENLLPQMITPRMMCVGFLSGGVDSCTGDSGGPLSSVEADGRIFQAGVVSWGDGCAQRNKPGVYTRLPLFRDWIKENTGV	–	8.9
MTSP-1 protease domain I41S/Y60gW/ins97aN/F99L/C122S/Q175R/Q192T (enzyme) VVGGTDADEGEWPWQVSLHALGQGHSCGASLISPNWLVSAAHCYIDDRGFRWSDPTQWTAFLGLHDQSQRSAPGVQERRLKRIISHPFFNDFNTLDYDIALLELEKPAEYSSMVRPISLPDASHVFPAGKAIWVTGWGHTQYGGTGALILQKGEIRVINQTTCENLLPQRITPRMMCVGFLSGGVDSCTGDSGGPLSSVEADGRIFQAGVVSWGDGCAQRNKPGVYTRLPLFRDWIKENTGV	–	12
MTSP-1 Q38H/I41S/D60bT/Y60gW/D96K/F97G/ins97aV/T98P/F99L/C122S/G151H/Q175L/Q192D (enzyme) VVGGTDADEGEWPWQVSLHALGHGHSCGASLISPNWLVSAAHCYIDTRGFRWSDPTQWTAFLGLHDQSQRSAPGVQERRLKRIISHPFFNKGVPLDYDIALLELEKPAEYSSMVRPISLPDASHVFPAGKAIWVTGWGHTQYGGTHALILQKGEIRVINQTTCENLLPQLITPRMMCVGFLSGGVDSCDGDSGGPLSSVEADGRIFQAGVVSWGDGCAQRNKPGVYTRLPLFRDWIKENTGV	8.64	–
MTSP-1 protease domain I41A/ins97aY/F99L/C122S/Q175R/Q192H (enzyme) VVGGTDADEGEWPWQVSLHALGQGHACGASLISPNWLVSAAHCYIDDRGFRYSDPTQWTAFLGLHDQSQRSAPGVQERRLKRIISHPFFNDFYTLDYDIALLELEKPAEYSSMVRPISLPDASHVFPAGKAIWVTGWGHTQYGGTGALILQKGEIRVINQTTCENLLPQRITPRMMCVGFLSGGVDSCHGDSGGPLSSVEADGRIFQAGVVSWGDGCAQRNKPGVYTRLPLFRDWIKENTGV	–	14.8
MTSP-1 protease domain I41T/ins97aA/F99Y/C122S/Q175L/Q192A (enzyme) VVGGTDADEGEWPWQVSLHALGQGHTCGASLISPNWLVSAAHCYIDDRGFRYSDPTQWTAFLGLHDQSQRSAPGVQERRLKRIISHPFFNDFATYDYDIALLELEKPAEYSSMVRPISLPDASHVFPAGKAIWVTGWGHTQYGGTGALILQKGEIRVINQTTCENLLPQLITPRMMCVGFLSGGVDSCAGDSGGPLSSVEADGRIFQAGVVSWGDGCAQRNKPGVYTRLPLFRDWIKENTGV	–	28
MTSP-1 protease domain L33M/Q38F/I41S/D96A/ins97aW/C122S/G151N/Q192S (enzyme) VVGGTDADEGEWPWQVSMHALGFGHSCGASLISPNWLVSAAHCYIDDRGFRYSDPTQWTAFLGLHDQSQRSAPGVQERRLKRIISHPFFNAFWTFDYDIALLELEKPAEYSSMVRPISLPDASHVFPAGKAIWVTGWGHTQYGGTNALILQKGEIRVINQTTCENLLPQQITPRMMCVGFLSGGVDSCSGDSGGPLSSVEADGRIFQAGVVSWGDGCAQRNKPGVYTRLPLFRDWIKENTGV	–	10.6
MTSP-1 protease domain Q38F/I41V/D96Q/ins97aT/C122S/G151D (enzyme) VVGGTDADEGEWPWQVSLHALGFGHVCGASLISPNWLVSAAHCYIDDRGFRYSDPTQWTAFLGLHDQSQRSAPGVQERRLKRIISHPFFNQFTTFDYDIALLELEKPAEYSSMVRPISLPDASHVFPAGKAIWVTGWGHTQYGGTDALILQKGEIRVINQTTCENLLPQQITPRMMCVGFLSGGVDSCQGDSGGPLSSVEADGRIFQAGVVSWGDGCAQRNKPGVYTRLPLFRDWIKENTGV	–	9.89
MTSP-1 protease domain Q38H/I41A/D96A/ins97aA/C122S/G151D/Q192T (enzyme) VVGGTDADEGEWPWQVSLHALGHGHACGASLISPNWLVSAAHCYIDDRGFRYSDPTQWTAFLGLHDQSQRSAPGVQERRLKRIISHPFFNAFATFDYDIALLELEKPAEYSSMVRPISLPDASHVFPAGKAIWVTGWGHTQYGGTDALILQKGEIRVINQTTCENLLPQQITPRMMCVGFLSGGVDSCTGDSGGPLSSVEADGRIFQAGVVSWGDGCAQRNKPGVYTRLPLFRDWIKENTGV	–	9.25
MTSP-1 protease domain I41S/ins97aT/F99L/C122S/Q175R/Q192H (enzyme) VVGGTDADEGEWPWQVSLHALGQGHSCGASLISPNWLVSAAHCYIDDRGFRYSDPTQWTAFLGLHDQSQRSAPGVQERRLKRIISHPFFNDFTTLDYDIALLELEKPAEYSSMVRPISLPDASHVFPAGKAIWVTGWGHTQYGGTGALILQKGEIRVINQTTCENLLPQRITPRMMCVGFLSGGVDSCHGDSGGPLSSVEADGRIFQAGVVSWGDGCAQRNKPGVYTRLPLFRDWIKENTGV	–	27.5
MTSP-1 protease domain I41S/F97del/T98S/F99L/C122S/Q192S (enzyme) VVGGTDADEGEWPWQVSLHALGQGHSCGASLISPNWLVSAAHCYIDDRGFRYSDPTQWTAFLGLHDQSQRSAPGVQERRLKRIISHPFFNDSLDYDIALLELEKPAEYSSMVRPISLPDASHVFPAGKAIWVTGWGHTQYGGTGALILQKGEIRVINQTTCENLLPQQITPRMMCVGFLSGGVDSCSGDSGGPLSSVEADGRIFQAGVVSWGDGCAQRNKPGVYTRLPLFRDWIKENTGV	–	23.2
MTSP-1 protease domain I41A/Y60gW/D96F/F97G/F99M/C122S/Q175W/Q192A (enzyme) VVGGTDADEGEWPWQVSLHALGQGHACGASLISPNWLVSAAHCYIDDRGFRWSDPTQWTAFLGLHDQSQRSAPGVQERRLKRIISHPFFNFGTMDYDIALLELEKPAEYSSMVRPISLPDASHVFPAGKAIWVTGWGHTQYGGTGALILQKGEIRVINQTTCENLLPQWITPRMMCVGFLSGGVDSCAGDSGGPLSSVEADGRIFQAGVVSWGDGCAQRNKPGVYTRLPLFRDWIKENTGV	–	4.06
MTSP-1 protease domain I41G/Y60gW/F99L/C122S/Q175R/Q192S (enzyme) VVGGTDADEGEWPWQVSLHALGQGHGCGASLISPNWLVSAAHCYIDDRGFRWSDPTQWTAFLGLHDQSQRSAPGVQERRLKRIISHPFFNDFTLDYDIALLELEKPAEYSSMVRPISLPDASHVFPAGKAIWVTGWGHTQYGGTGALILQKGEIRVINQTTCENLLPQRITPRMMCVGFLSGGVDSCSGDSGGPLSSVEADGRIFQAGVVSWGDGCAQRNKPGVYTRLPLFRDWIKENTGV	–	6.95

Second part, the binder after the results:

EC50 of hC3 cleavage [nM]	EC50 hC3 cleavage [nM]	Binder
–	10.8	MTSP-1 protease domain Q38H/I41T/D96M/ins97aA/C122S/G151D (enzyme) VVGGTDADEGEWPWQVSLHALGHGHTCGASLISPNWLVSAAHCYIDDRGFRYSDPTQWTAFLGLHDQSQRSAPGVQERRLKRIISHPFFNMFATFDYDIALLELEKPAEYSSMVRPISLPDASHVFPAGKAIWVTGWGHTQYGGTDALILQKGEIRVINQTTCENLLPQQITPRMMCVGFLSGGVDSCQGDSGGPLSSVEADGRIFQAGVVSWGDGCAQRNKPGVYTRLPLFRDWIKENTGV
–	17.9	MTSP-1 protease domain Q38H/I41S/D96Q/ins97aT/C122S/G151N/Q192A (enzyme) VVGGTDADEGEWPWQVSLHALGHGHSCGASLISPNWLVSAAHCYIDDRGFRYSDPTQWTAFLGLHDQSQRSAPGVQERRLKRIISHPFFNQFTTFDYDIALLELEKPAEYSSMVRPISLPDASHVFPAGKAIWVTGWGHTQYGGTNALILQKGEIRVINQTTCENLLPQQITPRMMCVGFLSGGVDSCAGDSGGPLSSVEADGRIFQAGVVSWGDGCAQRNKPGVYTRLPLFRDWIKENTGV
–	9.5	MTSP-1 protease domain Q38W/I41S/D96R/ins97aA/C122S/G151N/Q192A (enzyme) VVGGTDADEGEWPWQVSLHALGWGHSCGASLISPNWLVSAAHCYIDDRGFRYSDPTQWTAFLGLHDQSQRSAPGVQERRLKRIISHPFFNRFATFDYDIALLELEKPAEYSSMVRPISLPDASHVFPAGKAIWVTGWGHTQYGGTNALILQKGEIRVINQTTCENLLPQQITPRMMCVGFLSGGVDSCAGDSGGPLSSVEADGRIFQAGVVSWGDGCAQRNKPGVYTRLPLFRDWIKENTGV
–	16.7	MTSP-1 protease domain Q38H/I41S/D96S/ins97aK/C122S/G151N/Q192A (enzyme) VVGGTDADEGEWPWQVSLHALGHGHSCGASLISPNWLVSAAHCYIDDRGFRYSDPTQWTAFLGLHDQSQRSAPGVQERRLKRIISHPFFNSFKTFDYDIALLELEKPAEYSSMVRPISLPDASHVFPAGKAIWVTGWGHTQYGGTNALILQKGEIRVINQTTCENLLPQQITPRMMCVGFLSGGVDSCAGDSGGPLSSVEADGRIFQAGVVSWGDGCAQRNKPGVYTRLPLFRDWIKENTGV
–	16	MTSP-1 protease domain Q38H/I41S/D96V/ins97aA/C122S/G151N/Q192A (enzyme) VVGGTDADEGEWPWQVSLHALGHGHSCGASLISPNWLVSAAHCYIDDRGFRYSDPTQWTAFLGLHDQSQRSAPGVQERRLKRIISHPFFNVFATFDYDIALLELEKPAEYSSMVRPISLPDASHVFPAGKAIWVTGWGHTQYGGTNALILQKGEIRVINQTTCENLLPQQITPRMMCVGFLSGGVDSCAGDSGGPLSSVEADGRIFQAGVVSWGDGCAQRNKPGVYTRLPLFRDWIKENTGV
–	4.26	MTSP-1 protease domain Q38Y/I41A/D96I/ins97aQ/C122S (enzyme) VVGGTDADEGEWPWQVSLHALGYGHACGASLISPNWLVSAAHCYIDDRGFRYSDPTQWTAFLGLHDQSQRSAPGVQERRLKRIISHPFFNIFQTFDYDIALLELEKPAEYSSMVRPISLPDASHVFPAGKAIWVTGWGHTQYGGTGALILQKGEIRVINQTTCENLLPQQITPRMMCVGFLSGGVDSCQGDSGGPLSSVEADGRIFQAGVVSWGDGCAQRNKPGVYTRLPLFRDWIKENTGV
–	7.6	MTSP-1 protease domain Q38H/I41A/D96R/ins97aQ/C122S (enzyme) VVGGTDADEGEWPWQVSLHALGHGHACGASLISPNWLVSAAHCYIDDRGFRYSDPTQWTAFLGLHDQSQRSAPGVQERRLKRIISHPFFNRFQTFDYDIALLELEKPAEYSSMVRPISLPDASHVFPAGKAIWVTGWGHTQYGGTGALILQKGEIRVINQTTCENLLPQQITPRMMCVGFLSGGVDSCQGDSGGPLSSVEADGRIFQAGVVSWGDGCAQRNKPGVYTRLPLFRDWIKENTGV
–	19.2	MTSP-1 protease domain Q38H/I41S/D96K/ins97aT/C122S/G151K/Q192A (enzyme) VVGGTDADEGEWPWQVSLHALGHGHSCGASLISPNWLVSAAHCYIDDRGFRYSDPTQWTAFLGLHDQSQRSAPGVQERRLKRIISHPFFNKFTTFDYDIALLELEKPAEYSSMVRPISLPDASHVFPAGKAIWVTGWGHTQYGGTKALILQKGEIRVINQTTCENLLPQQITPRMMCVGFLSGGVDSCAGDSGGPLSSVEADGRIFQAGVVSWGDGCAQRNKPGVYTRLPLFRDWIKENTGV
